Results as given in PMC3098241, “Amyloid-Associated Nucleic Acid Hybridisation” (PLoS ONE, 2011).

How the values were obtained:
[1] = target: the molecule itself; test: circular dichroism + transmission electron microscopy; 0.8 mM STVIIE, 20 mM glycine pH 2.6, 20 C, spectra every 30 min for 24 h, without or with 242 nM 33mer DNA oligonucleotide (1:100 charge ratio); random coil to beta-sheet transition and fibrils
[2] = target: the molecule itself; test: X-ray fibre diffraction; dried aligned stalks from gels of peptide with salmon testis DNA or poly(A) RNA (5 mM (KL)5 + 5 mM DNA, pH 7, 150 mM NaCl; 16 mM (HL)5 + 10 mM poly(A) RNA pH 6; 1.6 mM TVQFHMH + 1.6 mM DNA pH 5.0; 16 mM TVQFHMH + 10 mM poly(A) RNA pH 6.0; 10 mM (KL)3 + 10 mM DNA; 5 mM (HL)3 + 5 mM DNA pH 6.2); cross-beta pattern as the sign of peptide self-assembly

B1: STVIIE (peptide)
peptide: STVIIE
notes: source: synthetic peptide, bought: Severn Biotech (UK), HPLC-purified
[1]
  binding result: binds

B2: TVQFHMH (peptide)
peptide: TVQFHMH
notes: source: synthetic peptide, bought: GL Biochem (PR China) or Peptide 2.0 (USA), 95% purity
[2]
  binding result: binds
